“And” between values parts separate entries of the source, which are not always exact repeats. Equal values may be shown once.

To fix the notation:
B1: Tryptophan synthase alpha chain, P00929 (parent)
chain: MERYENLFAQLNDRREGAFVPFVTLGDPGIEQSLKIIDTLIDAGADALELGVPFSDPLADGPTIQNANLRAFAAGVTPAQCFEMLALIREKHPTIPIGLLMYANLVFNNGIDAFYARCEQVGVDSVLVADVPVEESAPFRQAALRHNIAPIFICPPNADDDLLRQVASYGRGYTYLLSRSGVTGAENRGALPLHHLIEKLKEYHAAPALQGFGISSPEQVSAAVRAGAAGAISGSAIVKIIEKNLASPKQMLAELRSFVSAMKAASRA

The variants in the series derive from B1. The conditions noted are these: Salmonella typhimurium (strain LT2 / SGSC1412 / ATCC 700720), pH 7.8, 25 °C, Urea, CD, Potassium phosphate 10 mM, reversible: yes, structure 2WSY, whole UniProt chain shown.

Regarding MERYENLFAQLNDRREGAFVPLVTLGDPGIEQSLKIIDTLIDAGADALELGVPFSDPLADGPTIQNANLRAFAAGVTPAQCFEMLALIREKHPTIPIGLLMYANLVFNNGIDAFYARCEQVGVDSVLVADVPVEESAPFRQAALRHNIAPIFICPPNADDDLLRQVASYGRGYTYLLSRSGVTGAENRGALPLHHLIEKLKEYHAAPALQGFGISSPEQVSAAVRAGAAGAISGSAIVKIIEKNLASPKQMLAELRSFVSAMKAASRA [F22L], the “ddG of mutation (higher = less stable)” value was 1.05 kcal/mol and the unfolding free energy was 12.1 kcal/mol. In addition, for the setting “transition: 3”, the denaturant m value was 2.96 kcal/mol/M and 1.7 kcal/mol/M; the “denaturant midpoint (higher = more stable)” value (from here on “denaturant midpoint”) is 2.1 M and 3.3 M; the unfolding free energy was 6.38 kcal/mol and 5.73 kcal/mol.

For the variant MERYENLFAQLNDRREGAFVPVVTLGDPGIEQSLKIIDTLIDAGADALELGVPFSDPLADGPTIQNANLRAFAAGVTPAQCFEMLALIREKHPTIPIGLLMYANLVFNNGIDAFYARCEQVGVDSVLVADVPVEESAPFRQAALRHNIAPIFICPPNADDDLLRQVASYGRGYTYLLSRSGVTGAENRGALPLHHLIEKLKEYHAAPALQGFGISSPEQVSAAVRAGAAGAISGSAIVKIIEKNLASPKQMLAELRSFVSAMKAASRA [F22V], the “ddG of mutation (higher = less stable)” value stood at 3.44 kcal/mol and the unfolding free energy is 9.72 kcal/mol. Where the note is “transition: 3”, the “ddG of mutation (higher = less stable)” value is -0.06 kcal/mol, the denaturant m value is 1.74 kcal/mol/M, the “denaturant midpoint” value came out at 3.3 M and the unfolding free energy was determined as 5.87 kcal/mol.

Regarding MERYENLFAQLNDRREGAFVPIVTLGDPGIEQSLKIIDTLIDAGADALELGVPFSDPLADGPTIQNANLRAFAAGVTPAQCFEMLALIREKHPTIPIGLLMYANLVFNNGIDAFYARCEQVGVDSVLVADVPVEESAPFRQAALRHNIAPIFICPPNADDDLLRQVASYGRGYTYLLSRSGVTGAENRGALPLHHLIEKLKEYHAAPALQGFGISSPEQVSAAVRAGAAGAISGSAIVKIIEKNLASPKQMLAELRSFVSAMKAASRA [F22I], the “ddG of mutation (higher = less stable)” value was 4.58 kcal/mol and the unfolding free energy is 8.58 kcal/mol. For the setting “transition: 3”, the denaturant m value is 1.57 kcal/mol/M and 1.51 kcal/mol/M; the “denaturant midpoint” value was 2 M and 3.6 M; the unfolding free energy is 3.16 kcal/mol and 5.43 kcal/mol.

The record behind these values is FireProtDB (doi:10.1021/bi00123a002).
